Publication PMC8038991, “R-catcher, a potent molecular tool to unveil the arginylome” (Cellular and Molecular Life Sciences: CMLS, 2021)

Tests used:
Assay in all cases: ITC; protein 0.05 mM, 4-mer peptide 1 mM as injectant, B buffer (50 mM Tris-HCl pH 7.5, 200 mM NaCl), 25 °C, Microcal Auto-ITC200; single site-binding model
[1] = molecular target: purified N132D ZZ fragment p62 (122-175) of the ITC table (Fig. 3b) (human) (UniProt Q13501)
[2] = molecular target: purified wild type ZZ fragment p62 (122-175) of the ITC table (Fig. 3b) (human) (UniProt Q13501)
[3] = molecular target: GST-ZZ_(122-175), wild type, bacterially expressed (human) (UniProt Q13501)

Binder | Kd [1] [µM] | Kd [2] [µM] | Kd [3] [µM]
RIFS [RIFS tetrapeptide (Nt-Arg)] | 2.85 | 6.9 | 4.4
YIFS [YIFS tetrapeptide (Nt-Tyr)] | 107 | 20.7 | 16.1
